B1: MYOG (protein, UniProt P15173 1-224, looked up)
Myogenin: MELYETSPYFYQEPRFYDGENYLPVHLQGFEPPGYERTELTLSPEAPGPLEDKGLGTPEHCPGQCLPWACKVCKRKSVSVDRRRAATLREKRRLKKVNEAFEALKRSTLLNPNQRLPKVEILRSAIQYIERLQALLSSLNQEERDLRYRGGGGPQPGVPSECSSHSASCSPEWGSALEFSANPGDHLLTADPTDAHNLHSLTSIVDSITVEDVSVAFPDETMPN
B2: MNAT1 (protein, UniProt P51948 1-309, looked up)
CDK-activating kinase …: MDDQGCPRCKTTKYRNPSLKLMVNVCGHTLCESCVDLLFVRGAGNCPECGTPLRKSNFRVQLFEDPTVDKEVEIRKKVLKIYNKREEDFPSLREYNDFLEEVEEIVFNLTNNVDLDNTKKKMEIYQKENKDVIQKNKLKLTREQEELEEALEVERQENEQRRLFIQKEEQLQQILKRKNKQAFLDELESSDLPVALLLAQHKDRSTQLEMQLEKPKPVKPVTFSTGIKMGQHISLAPIHKLEEALYEYQPLQIETYGPHVPELEMLGRLGYLNHVRAASPQDLAGGYTSSLACHRALQDAFSGLFWQPS
B3: NEUROD (protein, UniProt Q13562 1-356, looked up)
Neurogenic differentiation …: MTKSYSESGLMGEPQPQGPPSWTDECLSSQDEEHEADKKEDDLETMNAEEDSLRNGGEEEDEDEDLEEEEEEEEEDDDQKPKRRGPKKKKMTKARLERFKLRRMKANARERNRMHGLNAALDNLRKVVPCYSKTQKLSKIETLRLAKNYIWALSEILRSGKSPDLVSFVQTLCKGLSQPTTNLVAGCLQLNPRTFLPEQNQDMPPHLPTASASFPVHPYSYQSPGLPSPPYGTMDSSHVFHVKPPPHAYSAALEPFFESPLTDCTSPSFDGPLSPPLSINGNFSFKHEPSAEFEKNYAFTMHYPAATLAGAQSHGSIFSGTAAPRCEIPIDNIMSFDSHSHHERVMSAQLNAIFHD
B4: MYNN (protein, UniProt Q9NPC7 1-610, looked up)
Myoneurin: MQYSHHCEHLLERLNKQREAGFLCDCTIVIGEFQFKAHRNVLASFSEYFGAIYRSTSENNVFLDQSQVKADGFQKLLEFIYTGTLNLDSWNVKEIHQAADYLKVEEVVTKCKIKMEDFAFIANPSSTEISSITGNIELNQQTCLLTLRDYNNREKSEVSTDLIQANPKQGALAKKSSQTKKKKKAFNSPKTGQNKTVQYPSDILENASVELFLDANKLPTPVVEQVAQINDNSELELTSVVENTFPAQDIVHTVTVKRKRGKSQPNCALKEHSMSNIASVKSPYEAENSGEELDQRYSKAKPMCNTCGKVFSEASSLRRHMRIHKGVKPYVCHLCGKAFTQCNQLKTHVRTHTGEKPYKCELCDKGFAQKCQLVFHSRMHHGEEKPYKCDVCNLQFATSSNLKIHARKHSGEKPYVCDRCGQRFAQASTLTYHVRRHTGEKPYVCDTCGKAFAVSSSLITHSRKHTGEKPYICGICGKSFISSGELNKHFRSHTGERPFICELCGNSYTDIKNLKKHKTKVHSGADKTLDSSAEDHTLSEQDSIQKSPLSETMDVKPSDMTLPLALPLGTEDHHMLLPVTDTQSPTSDTLLRSTVNGYSEPQLIFLQQLY
B5: MYSM1 (protein, UniProt Q5VVJ2 1-828, looked up)
Deubiquitinase MYSM1: MAAEEADVDIEGDVVAAAGAQPGSGENTASVLQKDHYLDSSWRTENGLIPWTLDNTISEENRAVIEKMLLEEEYYLSKKSQPEKVWLDQKEDDKKYMKSLQKTAKIMVHSPTKPASYSVKWTIEEKELFEQGLAKFGRRWTKISKLIGSRTVLQVKSYARQYFKNKVKCGLDKETPNQKTGHNLQVKNEDKGTKAWTPSCLRGRADPNLNAVKIEKLSDDEEVDITDEVDELSSQTPQKNSSSDLLLDFPNSKMHETNQGEFITSDSQEALFSKSSRGCLQNEKQDETLSSSEITLWTEKQSNGDKKSIELNDQKFNELIKNCNKHDGRGIIVDARQLPSPEPCEIQKNLNDNEMLFHSCQMVEESHEEEELKPPEQEIEIDRNIIQEEEKQAIPEFFEGRQAKTPERYLKIRNYILDQWEICKPKYLNKTSVRPGLKNCGDVNCIGRIHTYLELIGAINFGCEQAVYNRPQTVDKVRIRDRKDAVEAYQLAQRLQSMRTRRRRVRDPWGNWCDAKDLEGQTFEHLSAEELAKRREEEKGRPVKSLKVPRPTKSSFDPFQLIPCNFFSEEKQEPFQVKVASEALLIMDLHAHVSMAEVIGLLGGRYSEVDKVVEVCAAEPCNSLSTGLQCEMDPVSQTQASETLAVRGFSVIGWYHSHPAFDPNPSLRDIDTQAKYQSYFSRGGAKFIGMIVSPYNRNNPLPYSQITCLVISEEISPDGSYRLPYKFEVQQMLEEPQWGLVFEKTRWIIEKYRLSHSSVPMDKIFRRDSDLTCLQKLLECMRKTLSKVTNCFMAEEFLTEIENLFLSNYKSNQENGVTEENCTKELLM
B6: NEUROD3 (protein, UniProt Q92886 1-237, looked up)
Neurogenin-1: MPARLETCISDLDCASSSGSDLSGFLTDEEDCARLQQAASASGPPAPARRGAPNISRASEVPGAQDDEQERRRRRGRTRVRSEALLHSLRRSRRVKANDRERNRMHNLNAALDALRSVLPSFPDDTKLTKIETLRFAYNYIWALAETLRLADQGLPGGGARERLLPPQCVPCLPGPPSPASDAESWGSGAAAASPLSDPSSPAASEDFTYRPGDPVFSFPSLPKDLLHTTPCFIPYH
B7: NEUROD4 (protein, UniProt Q9HD90 1-331, looked up)
Neurogenic differentiation …: MSKTFVKSKEMGELVNTPSWMDKGLGSQNEVKEEESRPGTYGMLSSLTEEHDSIEEEEEEEEDGEKPKRRGPKKKKMTKARLERFRARRVKANARERTRMHGLNDALDNLRRVMPCYSKTQKLSKIETLRLARNYIWALSEVLETGQTPEGKGFVEMLCKGLSQPTSNLVAGCLQLGPQSVLLEKHEDKSPICDSAISVHNFNYQSPGLPSPPYGHMETHLLHLKPQVFKSLGESSFGSHLPDCSTPPYEGPLTPPLSISGNFSLKQDGSPDLEKSYSFMPHYPSSSLSSGHVHSTPFQAGTPRYDVPIDMSYDSYPHHGIGTQLNTVFTE
B8: MYCBP (protein, UniProt Q99417 2-103, looked up)
c-Myc-binding protein: AHYKAADSKREQFRRYLEKSGVLDTLTKVLVALYEEPEKPNSALDFLKHHLGAATPENPEIELLRLELAEMKEKYEAIVEENKKLKAKLAQYEPPQEEKRAE
B9: MSGN1 (protein, UniProt A6NI15 1-193, looked up)
Mesogenin-1: MDNLRETFLSLEDGLGSSDSPGLLSSWDWKDRAGPFELNQASPSQSLSPAPSLESYSSSPCPAVAGLPCEHGGASSGGSEGCSVGGASGLVEVDYNMLAFQPTHLQGGGGPKAQKGTKVRMSVQRRRKASEREKLRMRTLADALHTLRNYLPPVYSQRGQPLTKIQTLKYTIKYIGELTDLLNRGREPRAQSA
B10: ATF1 (protein, UniProt P18846 1-271, looked up)
Cyclic AMP-dependent …: MEDSHKSTTSETAPQPGSAVQGAHISHIAQQVSSLSESEESQDSSDSIGSSQKAHGILARRPSYRKILKDLSSEDTRGRKGDGENSGVSAAVTSMSVPTPIYQTSSGQYIAIAPNGALQLASPGTDGVQGLQTLTMTNSGSTQQGTTILQYAQTSDGQQILVPSNQVVVQTASGDMQTYQIRTTPSATSLPQTVVMTSPVTLTSQTTKTDDPQLKREIRLMKNREAARECRRKKKEYVKCLENRVAVLENQNKTLIEELKTLKDLYSNKSV
B11: MLXIP (protein, UniProt Q9HAP2 2-919, looked up)
MLX-interacting protein: AADVFMCSPRRPRSRGRQVLLKPQVSEDDDDSDTDEPSPPPASGAATPARAHASAAPPPPRAGPGREEPPRRQQIIHSGHFMVSSPHREHPPKKGYDFDTVNKQTCQTYSFGKTSSCHLSIDASLTKLFECMTLAYSGKLVSPKWKNFKGLKLQWRDKIRLNNAIWRAWYMQYLEKRKNPVCHFVTPLDGSVDVDEHRRPEAITTEGKYWKSRIEIVIREYHKWRTYFKKRLQQHKDEDLSSLVQDDDMLYWHKHGDGWKTPVPMEEDPLLDTDMLMSEFSDTLFSTLSSHQPVAWPNPREIAHLGNADMIQPGLIPLQPNLDFMDTFEPFQDLFSSSRSIFGSMLPASASAPVPDPNNPPAQESILPTTALPTVSLPDSLIAPPTAPSLAHMDEQGCEHTSRTEDPFIQPTDFGPSEPPLSVPQPFLPVFTMPLLSPSPAPPPISPVLPLVPPPATALNPPAPPTFHQPQKFAGVNKAPSVITHTASATLTHDAPATTFSQSQGLVITTHHPAPSAAPCGLALSPVTRPPQPRLTFVHPKPVSLTGGRPKQPHKIVPAPKPEPVSLVLKNARIAPAAFSGQPQAVIMTSGPLKREGMLASTVSQSNVVIAPAAIARAPGVPEFHSSILVTDLGHGTSSPPAPVSRLFPSTAQDPLGKGEQVPLHGGSPQVTVTGPSRDCPNSGQASPCASEQSPSPQSPQNNCSGKSDPKNVAALKNRQMKHISAEQKRRFNIKMCFDMLNSLISNNSKLTSHAITLQKTVEYITKLQQERGQMQEEARRLREEIEELNATIISCQQLLPATGVPVTRRQFDHMKDMFDEYVKTRTLQNWKFWIFSIIIKPLFESFKGMVSTSSLEELHRTALSWLDQHCSLPILRPMVLSTLRQLSTSTSILTDPAQLPEQASKAVTRIGKRLGES
B12: MUSCLIN (protein, UniProt P61366 28-133, looked up)
Osteocrin: VDVTTTEAFDSGVIDVQSTPTVREEKSATDLTAKLLLLDELVSLENDVIETKKKRSFSGFGSPLDRLSAGSVDHKGKQRKVVDHPKRRFGIPMDRIGRNRLSNSRG
B13: MTDH (protein, UniProt Q86UE4 1-582, looked up)
Protein LYRIC: MAARSWQDELAQQAEEGSARLREMLSVGLGFLRTELGLDLGLEPKRYPGWVILVGTGALGLLLLFLLGYGWAAACAGARKKRRSPPRKREEAAAVPAAAPDDLALLKNLRSEEQKKKNRKKLSEKPKPNGRTVEVAEGEAVRTPQSVTAKQPPEIDKKNEKSKKNKKKSKSDAKAVQNSSRHDGKEVDEGAWETKISHREKRQQRKRDKVLTDSGSLDSTIPGIENTITVTTEQLTTASFPVGSKKNKGDSHLNVQVSNFKSGKGDSTLQVSSGLNENLTVNGGGWNEKSVKLSSQISAGEEKWNSVSPASAGKRKTEPSAWSQDTGDANTNGKDWGRSWSDRSIFSGIGSTAEPVSQSTTSDYQWDVSRNQPYIDDEWSGLNGLSSADPNSDWNAPAEEWGNWVDEERASLLKSQEPIPDDQKVSDDDKEKGEGALPTGKSKKKKKKKKKQGEDNSTAQDTEELEKEIREDLPVNTSKTRPKQEKAFSLKTISTSDPAEVLVKNSQPIKTLPPATSTEPSVILSKSDSDKSSSQVPPILQETDKSKSNTKQNSVPPSQTKSETSWESPKQIKKKKKARRET
B14: MXD4 (protein, UniProt Q14582 1-209, looked up)
Max dimerization protein 4: MELNSLLILLEAAEYLERRDREAEHGYASVLPFDGDFAREKTKAAGLVRKAPNNRSSHNELEKHRRAKLRLYLEQLKQLVPLGPDSTRHTTLSLLKRAKVHIKKLEEQDRRALSIKEQLQQEHRFLKRRLEQLSVQSVERVRTDSTGSAVSTDDSEQEVDIEGMEFGPGELDSVGSSSDADDHYSLQSGTGGDSGFGPHCRRLGRPALS

Tested on: HEK293FT cells transfected with TF library
Experiment: Screening of TF condensates based on fluorescent puncta
Assay type: cell-based
Conditions: Figure 1B numerical data; TF library screen, one value per transcriptional factor
Outline: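 HEK293FT cells were reverse-transfected with Flag- or GAL4-tagged TF plasmids (1.6 μg/ml, PEI). After 60 h, cells were cultured 12 h with or without glucose, then fixed and immunostained with anti-Flag or anti-GAL4 and Alexa 488 secondaries. Fluorescent puncta were imaged over fifty random fields per well by high-content imaging.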

| Molecule | Z score of condensed fraction |
| --- | --- |
| B1 | 0.6311 |
| B2 | -0.8808 |
| B3 | 0.06185 |
| B4 | -0.5885 |
| B5 | -0.7244 |
| B6 | -0.2856 |
| B7 | 0.614 |
| B8 | -0.1227 |
| B9 | 0.1411 |
| B10 | -0.9514 |
| B11 | -0.5131 |
| B12 | 0.265 |
| B13 | 1.2714 |
| B14 | -0.9909 |

Reference: PMC11574045, “A cofactor-induced repressive type of transcription factor condensation can be induced by synthetic peptides to suppress tumorigenesis” (The EMBO Journal, 2024)
